This assay addresses VMRFL (VEGFR2-c-MPL chimeric receptor, D1-7 linked to the c-MPL TM) (human). Kind of assay: cell-based or functional assay.

In the case of “recombinant human VEGF-A165 (from UniProt P15692 27-191) (ligand)”, the EC50 of % pSTAT5+ cells (VEGF dose-dependent STAT5 phosphorylation in VMRFL+ T cells) is 106 pg/ml and the EC50 of pSTAT5 MFI (VEGF dose-dependent STAT5 phosphorylation in VMRFL+ T cells) came to 144 pg/mL.

These data come from patent US20250262274A1.
